# Results as given in patent US9243044B2, “Anticoagulant polypeptide and applications thereof” (GUANGDONG MEDICAL COLLEGE, priority 2011, dated 2016).
# Entries after “also recorded” stand apart in the source; their conditions may differ. Marks after values point to notes of the source that are not given here.
# B1: NAPTin-1 (protein)
# chain: NPSCGENERHDECSRKECDPKCKYDGTEEKDDEKPVVCLTRVCYGDCICRDGFLRNKNGACVKAEDCELD
# modifications: Sequence derived from Ancylostoma caninum or Synthetic
# Tests used:
# human fXa = molecular target: T1, human fXa (Homo sapiens, UniProt P00742); experiment: Chromogenic assay, fXa; type: biochemical
# T1 construct: Human coagulation factors IIa (thrombin), Xa, XIa, XIIa, EGR-fXa; purchased Haematologic Technologies Inc (United States)
# Source text: (§1) The recombinant anticoagulant polypeptides in the present invention were expressed in E. coli and purified in our laboratory, of which the activities against coagulation factors were investigated by chromogenic assays. Human coagulation factors IIa (thrombin), Xa, XIa, XIIa, EGR-fXa were products of Haematologic Technologies Inc (United States). Recombinant fVIIa was products of Novo-Nordisk (Denmark). Recombinant soluble tissue factor (sTF) was purchased from Protgen (Beijing, China). The following chromogenic substrates were used for these coagulation factor assays: S2765 for human fXa, S2288 for human fVIIa and fIIa, 52366 for human fXIa and fXIIa, respectively.
# (§2) The chromogenic assays were carried out in a total reaction volume of 100 μl in individual wells of a 96-well microtiter plate. 50 μl fIIa, fXa, fXIa, or fXIIa (final concentration: 1 nM) was incubated with 10 μl recombinant anticoagulant polypeptide at various concentrations (or PBS control group) Assays for the detection activity of fVIIa: 50 μl fVIIa+TF (1 μM) and EGR-fXa (final concentration 500 nM) was incubated for 15 mins at 25° C., respectively. After the addition of 40 μl of prewarmed chromogenic substrate to a final concentration of 400 μM, the changes of absorbance at 405 nm were monitored by using an E1x808 kinetic microtiter reader. The data were used to calculate the velocities of response.
# normal human plasma [1] = experiment: aPTT assay in normal human plasma; type: biochemical; details: for aPTT: normal human plasma; for multiples of prolonging aPTT: ratio of mean aPTT to blank control
# Experimental: (§3) The recombinant anticoagulant polypeptides were expressed in Escherichia coli and purified in our laboratory. Anticoagulant activity was determined by measuring the aPTT and PT.
# For the aPTT assay, 10 μl recombinant protein at various concentrations was mixed with 50 μl fresh normal human plasma, 20 μl aPTT reagent (MDC Hemostasis, Germany) and incubated for 15 mins at 37° C. 20 μl 0.05 mol/L prewarmed CaCl2 was then added to initiate the clotting reaction. The clotting time was measured with the absorbance at 630 nm by using an E1x808 kinetic microtiter reader (BioTek, United States). Each concentration was repeated 3 times. The ratio of the mean aPTT value of each concentration to blank control group is multiples of prolonging the aPTT.
# normal human plasma [2] = experiment: PT assay in normal human plasma; type: biochemical; details: for PT: normal human plasma
# Experimental: as §3
# For the PT assay, 10 μl recombinant protein at various concentration was mixed with 45 μl normal human plasma and incubated for 15 mins at 37° C. 45 μl prewarmed PT reagent (MDC Hemostasis, Germany) was then added and the clotting time was measured with the absorbance at 630 nm by using an E1x808 kinetic microtiter reader (BioTek, United States). Each concentration was repeated 3 times.
# SD rats [3] = experiment: Rat carotid artery thrombosis (FeCl3); type: in vivo; details: for Inhibition rate %: vs model group
# Experimental: 50 SPF grade male SD rats (provided by the laboratory animal center of Guangdong Medical College, 300-350 g body weight) were randomly divided into sham operation group (except without the FeCl3, the remaining steps with other groups), model group, and rNAPTin-1 low dose (100 μg·kg^−1), middle dose (1 mg·kg^−1), high dose group (5 mg·kg^−1), 10 rats each group, respectively. These rats were anaesthetized with 10% chloral hydrate (250 mg/kg) by intraperitoneal injection. The right carotid artery was isolated by making a midline cervical incision followed by blunt dissection to expose a 1 cm segment of the vessel from the carotid sheath, and then a 0.6 cm wide sealing adhesive strip was inserted. After 5 mins of tail intravenous injection of drugs, separation spare the common carotid artery segment was ring wrapped by filter paper (1.0 cm×0.5 cm) soaked in 20% FeCl3 solution and sealed with strip seal. After 15 mins, the filter strips was remove. 40 mins later, the blood vessels ligation at both ends of filter paper was ligated. The vascular segment of the paper strip wrapped was precisely cut followed sucked excess blood in blood vessels with a clean filter paper, and wet weight including thrombotic vascular was accurately weighed, then weighed again after removing blood clots. The difference is the quality of the thrombus within the 0.5 cm long vessel segment. In sham operation, FeCl3 immersion filter strips were replaced with normal saline immersion filter strips.
# BALb/c mice = experiment: Mouse tail bleeding time; type: in vivo; details: tail transected after 10 min
# Experimental: After 10 min, the distal tip 1.5 mm of the mouse tail was transected and the blood oozed was soaked with filter paper very 30 seconds until the bleeding stops. The bleeding time was defined as the time elapsed from the tail transection to the stoppage of bleeding.
# human fXIa = molecular target: T2, human fXIa (Homo sapiens, UniProt P03951); experiment: Chromogenic assay, fXIa; type: biochemical
# T2 construct: Human coagulation factors IIa (thrombin), Xa, XIa, XIIa, EGR-fXa; purchased Haematologic Technologies Inc (United States)
# Source text: as §1, §2
# SD rats [4] = experiment: Rat arterio-venous shunt thrombus formation model; type: in vivo
# Experimental: 50 SPF grade male SD rats (provided by the laboratory animal center of Guangdong Medical College, 300-350 g body weight) were randomly divided into saline control group, positive control group (100 U·kg^−1 heparin sodium, Shanghai No. 1 Biochemical & Pharmaceutical Co. Ltd), and rNAPT-1 low dose (100 μg·kg^−1), middle dose (1 mg·kg^−1), high dose group (5 mg·kg^−1), 10 rats each group, respectively. These rats were anaesthetized with 10% chloral hydrate (250 mg/kg) by intraperitoneal injection. The right common carotid artery and left external jugular vein was exposed and dissected bluntly from the surrounding tissue after a surgical incision. One end of a polyethylene pipe (1.5 mm of diameter, 22 cm of length) with a 5 cm length of No. 4 operation suture in it and filled with 50 U/mL heparin solution was inserted into the right common carotid artery, and the other end was inserted into the left external […] vein. 5 min after tail intravenous injection of drugs, the artery clamp was opened, and blood flow from the right common carotid artery to the left external jugular vein through the polyethylene pipe. After 15 min of blood flow, the suture line was quickly removed and weighed. The net weight of thrombus is total weight minus suture weight; inhibition rate=(wet weight of thrombus of saline control group−wet weight of thrombus of administration group)/wet weight of thrombus of saline control group×100%.
# T1 sequence (P00742 41-179 limits assumed): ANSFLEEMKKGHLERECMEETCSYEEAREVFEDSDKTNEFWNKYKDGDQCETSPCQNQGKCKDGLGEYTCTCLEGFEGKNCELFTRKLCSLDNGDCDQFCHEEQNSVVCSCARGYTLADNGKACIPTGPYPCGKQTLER
# T1 sequence (P00742 235-488 limits assumed): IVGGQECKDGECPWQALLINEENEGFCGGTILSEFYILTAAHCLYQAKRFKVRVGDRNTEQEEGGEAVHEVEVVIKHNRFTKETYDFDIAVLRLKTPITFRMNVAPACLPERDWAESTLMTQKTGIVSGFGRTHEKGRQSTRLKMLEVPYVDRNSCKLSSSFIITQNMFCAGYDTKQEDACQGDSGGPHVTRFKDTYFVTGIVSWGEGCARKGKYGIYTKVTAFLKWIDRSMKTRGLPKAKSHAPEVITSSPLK
# T2 sequence (P03951 19-387 limits assumed): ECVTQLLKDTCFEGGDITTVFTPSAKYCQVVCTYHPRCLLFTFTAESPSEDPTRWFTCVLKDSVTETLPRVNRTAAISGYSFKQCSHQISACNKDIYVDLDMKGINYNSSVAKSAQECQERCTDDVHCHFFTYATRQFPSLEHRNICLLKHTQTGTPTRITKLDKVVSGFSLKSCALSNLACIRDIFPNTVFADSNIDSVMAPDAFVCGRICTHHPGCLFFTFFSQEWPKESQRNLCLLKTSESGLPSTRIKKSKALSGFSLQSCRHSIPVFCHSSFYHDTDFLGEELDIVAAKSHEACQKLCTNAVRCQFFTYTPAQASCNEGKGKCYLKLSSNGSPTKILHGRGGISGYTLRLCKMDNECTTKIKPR
# T2 sequence (P03951 388-625 limits assumed): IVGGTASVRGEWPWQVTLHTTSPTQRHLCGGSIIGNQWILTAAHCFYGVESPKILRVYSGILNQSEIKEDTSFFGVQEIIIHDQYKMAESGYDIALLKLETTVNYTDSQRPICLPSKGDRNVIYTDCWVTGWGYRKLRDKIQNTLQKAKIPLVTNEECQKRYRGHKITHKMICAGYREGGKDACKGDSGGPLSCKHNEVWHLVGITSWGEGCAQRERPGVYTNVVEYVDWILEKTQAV
molecule,measurement,setting,value
B1,effect on fXa activity (in words),human fXa; 100 nM,without affecting; also recorded: no significant inhibitory activity
same,effect on fXa activity (in words),human fXa; 200 nM,without affecting
same,prolongation of aPTT (in words),normal human plasma [1]; 100 nM and 500 nM,significantly prolong aPTT
same,aPTT,normal human plasma [1]; 100 nM,79.2 ± 3.5 s
same,multiples of prolonging aPTT,normal human plasma [1]; 100 nM,1.98
same,aPTT,normal human plasma [1]; 500 nM,228.3 ± 7.4 s
same,multiples of prolonging aPTT,normal human plasma [1]; 500 nM,5.69
same,prolongation of PT (in words),normal human plasma [2]; 100 nM and 500 nM,couldn't prolong PT
same,PT,normal human plasma [2]; 100 nM,12.4 ± 0.9 s
same,PT,normal human plasma [2]; 500 nM,12.1 ± 0.4 s
same,wet weight of thrombus,SD rats [3]; 100 μg·kg^−1 i.v.,1.5 ± 0.2 mg
same,Inhibition rate %,SD rats [3]; 100 μg·kg^−1 i.v.,66.7%
same,wet weight of thrombus,SD rats [3]; 1 mg·kg^−1 i.v.,0.5 ± 0.3 mg
same,Inhibition rate %,SD rats [3]; 1 mg·kg^−1 i.v.,88.9%
same,wet weight of thrombus (mg),SD rats [3]; 5 mg·kg^−1 i.v.,0* mg
same,Inhibition rate %,SD rats [3]; 5 mg·kg^−1 i.v.,100%
same,Bleeding time,BALb/c mice; 100 μg·kg^−1 tail vein,8.34 ± 1.7 min
same,Bleeding time,BALb/c mice; 1 mg·kg^−1 tail vein,8.30 ± 2.1 min
same,Bleeding time,BALb/c mice; 5 mg·kg^−1 tail vein,8.28 ± 2.3 min
same,inhibition of the activity of fXIa,human fXIa; 100 nM,more than 90%
same,inhibition of the activity of fXIa (in words),human fXIa; 200 nM,almost completely inhibited
same,wet weight of thrombus,SD rats [4]; 100 μg·kg^−1 i.v.,8.5 ± 1.8 mg
same,Inhibition rate %,"SD rats [4]; 100 μg·kg^−1 i.v., vs saline control",80.5%
same,wet weight of thrombus,SD rats [4]; 1 mg·kg^−1 i.v.,1.5 ± 0.3 mg
same,Inhibition rate %,"SD rats [4]; 1 mg·kg^−1 i.v., vs saline control",97%
same,wet weight of thrombus,SD rats [4]; 5 mg·kg^−1 i.v.,0.3 ± 0.2 mg
same,Inhibition rate %,"SD rats [4]; 5 mg·kg^−1 i.v., vs saline control",99%
same,effect on arterio-venous shunt thrombosis (in words),"SD rats [4]; vs saline control, P<0.01",could inhibit rat arterio-venous shunt thrombosis
